US20250340631A1 (HARBOUR BIOMED SHANGHAI, published 2025)
Numbering of substitutions follows the chain as printed. One block for each binder: values may come before it.

How the values were obtained:
[1] = molecular target: T1, Biotinylated human CD3E&D (human, UniProt P07766 23-126; P04234 22-105, biotin label); assay: BLI (Octet), biotinylated CD3 on SA sensor, 1:1 global fit;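 further: antibodies applied as analyte in 2-fold serial dilutions, with a 180 s association phase followed by a 300 s dissociation phase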
T1 construct: also called CDD-H82W6
T1 sequence (P07766 23-126, chain 1 of 2): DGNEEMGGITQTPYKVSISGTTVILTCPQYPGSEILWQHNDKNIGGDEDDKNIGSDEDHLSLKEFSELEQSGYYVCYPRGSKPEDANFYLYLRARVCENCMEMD
T1 sequence (P04234 22-105, chain 2 of 2): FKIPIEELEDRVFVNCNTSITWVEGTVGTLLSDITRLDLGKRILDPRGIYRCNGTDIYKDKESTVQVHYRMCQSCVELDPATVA
Protocol: (§1) The binding kinetics between proteins and antibodies was analyzed by the Biolayer Interferometry (BLI) technique using an Octet Red 96e (Fortebio) system. Human CD3E (Acro, CDE-H5223), cynomolgus CD3E (Acro, CDE-C5226) and murine CD3E (Acro, CDE-M5256) were mixed with biotin (Thermo Scientific, A39257) in a molar ratio of 1:3. The mixture was incubated at 4° C. overnight, and then excess biotin was removed to obtain biotinylated CD3E. The rotation speed was set at 1000 rpm for the system. […] After being equilibrated in the buffer for 120 s, the SA sensor with captured CD3 was allowed to bind to 2-fold serially diluted antibodies. […] Finally, the SA sensor was immersed in a 10 mM glycine-hydrochloric acid solution at pH 1.5 for regeneration to elute the antibodies bound to the sensor. […] For the interactions of fast binding and fast dissociation, the “steady state” method was selected to fit the data to obtain KD(M) values.

[2] = molecular target: T2, Human CD3E (Acro, CDE-H5223) (human, UniProt P07766 23-126, biotinylated (mixed with biotin 1:3)); assay: as above
T2 construct: also called Human CD3Ec
T2 sequence (P07766 23-126 limits assumed): as the sequence (P07766 23-126, chain 1 of 2) above
Protocol: as §1

[3] = molecular target: T3, Biotinylated murine CD3E&D (murine, UniProt P22646 22-108; P04235 22-105, biotin label); assay: BLI (Octet), biotinylated CD3 on SA sensor
T3 construct: also called CDD-M82W5
T3 sequence (P22646 22-108, chain 1 of 2): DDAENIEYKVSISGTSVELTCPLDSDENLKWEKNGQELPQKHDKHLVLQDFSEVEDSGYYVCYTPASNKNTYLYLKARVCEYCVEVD
T3 sequence (P04235 22-105, chain 2 of 2): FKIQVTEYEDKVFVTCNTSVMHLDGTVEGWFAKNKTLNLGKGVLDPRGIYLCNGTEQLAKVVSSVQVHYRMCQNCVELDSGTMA
Protocol: as §1

human CLDN18.1 = molecular target: T4, human CLDN18.1 (human, UniProt P56856 1-261); assay: FACS on HEK293/hCLDN18.1 cells
T4 construct: whole, on cells; also called hCLDN18.1
T4 sequence (P56856 whole entry): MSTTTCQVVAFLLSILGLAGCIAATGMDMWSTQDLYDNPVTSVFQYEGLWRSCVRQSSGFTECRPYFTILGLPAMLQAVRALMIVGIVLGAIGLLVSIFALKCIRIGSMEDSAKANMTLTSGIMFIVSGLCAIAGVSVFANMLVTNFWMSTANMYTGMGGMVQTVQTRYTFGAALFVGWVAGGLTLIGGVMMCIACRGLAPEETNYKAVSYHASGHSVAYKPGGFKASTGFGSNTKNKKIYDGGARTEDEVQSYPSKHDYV
Protocol: (§2) Antibodies were assayed for binding affinity by FACS. Test cells include HEK293/hCLDN18.2, HEK293/hCLDN18.1, NUGC4_D8 and Jurkat cells. […] The cell density was adjusted to 10⁶ cells/mL, and 50 μL of the cell suspension was added to each well of a 96-well plate. Antibodies were diluted to different concentrations with FACS buffer, and 50 μL of the antibody dilution was added to each well of the 96-well plate. After 2 h of incubation at 4° C., the plate was washed twice with FACS buffer. […] After 1 h of incubation at 4° C., the plate was washed twice with FACS buffer. The cells were resuspended in fixative solution, and then the fluorescence of the cells was monitored using an FACS instrument (ACEA NovoCyte).

human CLDN18.2 [4] = molecular target: T5, human CLDN18.2 (human); assay: FACS on NUGC4_D8 cells
T5 construct: the HEK293 line was made with a GenScript plasmid; also called hCLDN18.2

[5] = molecular target: T6, human CD3 on Jurkat cells (human, UniProt P07766 23-207); assay: FACS on Jurkat cells
T6 construct: whole, on cells; on cells it stands in the whole CD3/TCR complex; also called CD3-expressing cells
T6 sequence (P07766 23-207): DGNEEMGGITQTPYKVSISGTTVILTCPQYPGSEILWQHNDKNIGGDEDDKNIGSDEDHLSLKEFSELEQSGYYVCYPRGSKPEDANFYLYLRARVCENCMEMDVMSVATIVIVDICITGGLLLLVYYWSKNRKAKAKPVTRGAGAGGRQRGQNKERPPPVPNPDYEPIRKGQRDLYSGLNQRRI
Protocol: as §2

human CLDN18.2 [6] = molecular target: T5, human CLDN18.2; assay: cell-based or functional assay
[7] = molecular target: T6, human CD3 on Jurkat cells; assay: FACS on Jurkat cells; remark: listed apart in the source
Protocol: as §2

[8] = molecular target: T7, Cynomolgus CD3E (Acro, CDE-C5226) (cynomolgus, UniProt Q95LI5 22-117, biotinylated (mixed with biotin 1:3)); assay: BLI (Octet), biotinylated CD3 on SA sensor, 1:1 global fit;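 further: antibodies applied as analyte in 2-fold serial dilutions, with a 180 s association phase followed by a 300 s dissociation phase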
T7 sequence (looked up): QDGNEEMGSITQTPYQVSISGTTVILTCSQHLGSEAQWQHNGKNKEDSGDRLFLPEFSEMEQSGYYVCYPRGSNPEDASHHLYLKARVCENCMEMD
Protocol: as §1

human CLDN18.2 [9] = molecular target: T5, human CLDN18.2; assay: competition FACS on HEK293/hCLDN18.2 cells; competitor 200 nM biotinylated PR004549
Protocol: (§3) This example is to study the binding of anti-human CLDN18.2 bispecific antibodies to the epitope region of a human CLDN18.2 antigen. Competitive binding experiments were performed at the cellular level using human CLDN18.2-overexpressing HEK293/hCLDN18.2 cells. […] The mixture was well mixed and incubated at 4° C. for 30 min. 25 μL of the corresponding serially diluted non-biotinylated anti-human CLDN18.2 antibody was added. The mixture was well mixed and incubated at 4° C. for 1 h. The cells in each well were washed twice with 200 μL of pre-cooled FACS buffer (2% BSA in DPBS) and centrifuged at 500 g at 4° C. for 5 min, and then the supernatant was discarded. A fluorescent secondary antibody (Jackson ImmunoResearch, 016-540-084, 1:500) was added. The mixture was incubated at 4° C. in the absence of light for 1 h. The cells in each well were washed twice with 200 μL of pre-cooled FACS buffer (2% BSA in DPBS) and centrifuged at 500 g at 4° C. for 5 min, and then the supernatant was discarded. Finally, the cells in each well were resuspended in 200 μL of pre-cooled FACS buffer, and the fluorescence signal values were read using a ACEA_NovoCyte.

human CLDN18.2 [10] = molecular target: T5, human CLDN18.2; assay: competition FACS on HEK293/hCLDN18.2 cells; competitor 10 nM biotinylated PR000400
Protocol: as §3

Human FcRn = Human FcRn (human, UniProt P55899 24-297; P61769 21-119); assay: BLI (Octet), antibody on FAB2G sensor, pH 6.0, 1:1 global fit; pH 6.0; 400-25 nM
Protocol: (§4) The binding kinetics between proteins and antibodies was analyzed by the Biolayer Interferometry (BLI) technique using an Octet Red 96e (Fortebio) system. The rotation speed was set at 1000 rpm for the system. […] After equilibrated in the buffer for 120 s, the FAB2G sensor was allowed to bind to 2-fold serially diluted human Fc receptor protein. Finally, the FAB2G sensor was immersed in a 10 mM glycine-hydrochloric acid solution at pH 1.5 for regeneration to elute the proteins bound to the sensor. The affinity assays of antibodies for FcRn were performed under the conditions of both pH 6.0 buffer and pH 7.4 buffer. […] For the interactions of fast binding and fast dissociation, the “steady state” method was selected to fit the data to obtain KD(M) values.

[11] = molecular target: CLDN18.2 of SNU620 cells (methionine to leucine at amino acid 149) (human, UniProt P56856-2 1-261); assay: cell-based or functional assay
CLDN18.2 of SNU620 cells (methionine to leucine at amino acid 149), sequence (P56856 other isoform, or with tags, fused parts or gaps limits assumed): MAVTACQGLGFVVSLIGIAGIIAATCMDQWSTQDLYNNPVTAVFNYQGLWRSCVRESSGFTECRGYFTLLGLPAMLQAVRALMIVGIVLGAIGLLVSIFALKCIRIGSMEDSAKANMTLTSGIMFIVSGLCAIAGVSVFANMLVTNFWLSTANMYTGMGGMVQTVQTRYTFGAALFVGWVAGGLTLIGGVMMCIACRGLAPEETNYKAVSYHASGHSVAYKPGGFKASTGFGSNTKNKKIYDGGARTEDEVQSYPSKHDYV

Human CD16a(V) = Human CD16a(V) (human, UniProt P08637 17-208); assay: BLI (Octet), antibody on FAB2G sensor
Human CD16a(V), sequence (P08637 17-208 F176V limits assumed): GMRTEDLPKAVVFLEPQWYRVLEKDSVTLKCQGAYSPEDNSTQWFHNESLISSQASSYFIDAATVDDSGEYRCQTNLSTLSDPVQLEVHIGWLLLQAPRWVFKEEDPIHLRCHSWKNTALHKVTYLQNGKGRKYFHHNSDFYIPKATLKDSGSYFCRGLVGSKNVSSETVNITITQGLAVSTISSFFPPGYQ
Protocol: as §4

Human CD32a(H) = molecular target: T8, Human CD32a(H) (human, UniProt P12318 36-218, limits assumed); assay: BLI (Octet), antibody on FAB2G sensor
T8 sequence (looked up): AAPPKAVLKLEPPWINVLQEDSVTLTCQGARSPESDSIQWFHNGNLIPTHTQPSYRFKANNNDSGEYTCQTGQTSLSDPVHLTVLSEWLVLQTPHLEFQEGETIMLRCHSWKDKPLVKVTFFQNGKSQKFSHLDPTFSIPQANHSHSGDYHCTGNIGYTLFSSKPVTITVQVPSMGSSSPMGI
Protocol: as §4

Human CD64 = molecular target: T9, Human CD64 (human, UniProt P12314 16-288, limits assumed); assay: BLI (Octet), antibody on FAB2G sensor
T9 construct: bought recombinant protein
T9 sequence (P12314 16-288 limits assumed): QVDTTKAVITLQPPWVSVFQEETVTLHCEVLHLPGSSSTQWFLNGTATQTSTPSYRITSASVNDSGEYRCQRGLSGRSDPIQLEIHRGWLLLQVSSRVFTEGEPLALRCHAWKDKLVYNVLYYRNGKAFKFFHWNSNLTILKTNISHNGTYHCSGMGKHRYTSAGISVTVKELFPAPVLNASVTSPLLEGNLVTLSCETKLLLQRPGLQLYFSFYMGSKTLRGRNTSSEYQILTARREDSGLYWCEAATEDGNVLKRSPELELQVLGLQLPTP
Protocol: as §4

Human CD16a(F) = Human CD16a(F) (human, UniProt P08637 17-208); assay: BLI (Octet), antibody on FAB2G sensor
Human CD16a(F), sequence (P08637 17-208 limits assumed): as the sequence (P08637 17-208 F176V limits assumed) above, with V160F counted along it
Protocol: as §4

Human CD32b = molecular target: T10, Human CD32b (human, UniProt P31994 46-217, limits assumed); assay: BLI (Octet), antibody on FAB2G sensor
T10 sequence (looked up): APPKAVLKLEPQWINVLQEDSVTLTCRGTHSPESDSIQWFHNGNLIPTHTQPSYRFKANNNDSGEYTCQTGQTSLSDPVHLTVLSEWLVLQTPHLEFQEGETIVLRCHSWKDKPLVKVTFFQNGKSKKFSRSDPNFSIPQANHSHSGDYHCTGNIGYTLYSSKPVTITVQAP
Protocol: as §4

human CLDN18.2 [12] = molecular target: T5, human CLDN18.2; assay: FACS on HEK293/hCLDN18.2 cells
Protocol: as §2

Kd [1]: 33.7 nM
koff [1]: 0.00137 s⁻¹
kon [1]: 40700 M⁻¹ s⁻¹
Kd [2]: 30.8 nM
koff [2]: 0.00225 s⁻¹
kon [2]: 73100 M⁻¹ s⁻¹
binding result [3]: no binding (tested: 120-7.5 nM)
B1: PR004931 (bispecific antibody)
chain 1: QVQLVQSGAEVKKPGASVKVSCKASGYTFTEFGMNWVRQAPGQGLEWMGWINTKTGEATYVEEFKGRVTFTTDTSTSTAYMELRSLRSDDTAVYYCARWDFAYYVEAMDYWGQGTTVTVSSASTKGPSVFPLAPSSKSTSGGTAALGCLVKDYFPEPVTVSWNSGALTSGVHTFPAVLQSSGLYSLSSVVTVPSSSLGTQTYICNVNHKPSNTKVDKKVEPKSCDGGGGSGGGGSEVQLLESGGGLVQPGGSLRLSCAASGFTFSTYAMNWVRQAPGKGLEWVSRIRSKYNNYATYYADSVKGRFTISRDDSKNTLYLQMNSLRAEDTAVYYCVRHGNFGNSYVSWFAYWGQGTLVTVSSASVAAPSVFIFPPSDEQLKSGTASVVCLLNNFYPREAKVQWKVDNALQSGNSQESVTEQDSKDSTYSLSSTLTLSKADYEKHKVYACEVTHQGLSSPVTKSFNRGECDKTHTCPPCPAPEAAGGPSVFLFPPKPKDTLMISRTPEVTCVVVDVSHEDPEVKFNWYVDGVEVHNAKTKPREEQYNSTYRVVSVLTVLHQDWLNGKEYKCKVSNKALGAPIEKTISKAKGQPREPQVYTLPPCREEMTKNQVSLWCLVKGFYPSDIAVEWESNGQPENNYKTTPPVLDSDGSFFLYSKLTVDKSRWQQGNVFSCSVMHEALHNHYTQKSLSLSPGK
chain 2: QAVVTQEPSLTVSPGGTVTLTCGSSTGAVTTSNYANWVQEKPGQAFRGLIGGTNKRAPGTPARFSGSLLGGKAALTLSGAQPEDEAEYYCALWYSNLWVFGGGTKLTVLSSASTKGPSVFPLAPSSKSTSGGTAALGCLVKDYFPEPVTVSWNSGALTSGVHTFPAVLQSSGLYSLSSVVTVPSSSLGTQTYICNVNHKESNTKVDKKVEPKSC
chain 3: QVQLVQSGAEVKKPGASVKVSCKASGYTFTEFGMNWVRQAPGQGLEWMGWINTKTGEATYVEEFKGRVTFTTDTSTSTAYMELRSLRSDDTAVYYCARWDFAYYVEAMDYWGQGTTVTVSSASTKGPSVFPLAPSSKSTSGGTAALGCLVKDYFPEPVTVSWNSGALTSGVHTFPAVLQSSGLYSLSSVVTVPSSSLGTQTYICNVNHKPSNTKVDKKVEPKSCDKTHTCPPCPAPEAAGGPSVFLFPPKPKDTLMISRTPEVTCVVVDVSHEDPEVKFNWYVDGVEVHNAKTKPREEQYNSTYRVVSVLTVLHQDWLNGKEYKCKVSNKALGAPIEKTISKAKGQPREPQVCTLPPSREEMTKNQVSLSCAVKGFYPSDIAVEWESNGQPENNYKTTPPVLDSDGSFFLVSKLTVDKSRWQQGNVFSCSVMHEALHNHYTQKSLSLSPGK
chain 4: DIQMTQSPSSLSASVGDRVTITCKASAAVGTYVAWYQQKPGKAPKLLIYSASYRKRGVPSRFSGSGSGTDFTLTISSLQPEDFATYYCHQYYTYPLFTFGQGTKLEIKRTVAAPSVFIFPPSDEQLKSGTASVVCLLNNEYPREAKVQWKVDNALQSGNSQESVTEQDSKDSTYSLSSTLTLSKADYEKHKVYACEVTHQGLSSPVTKSFNRGEC
notes: also called anti-CEA×CD3 bispecific antibody (WO2017055389A1, Roche)

binding result (human CLDN18.1): no binding
EC50 (human CLDN18.2 [4]): 13.9 nM
binding result [5]: binds
TDCC, Titer EC50 (pM), NUGC4_D8 (human CLDN18.2 [6]): 22.4 pM
B2: PR005520 (bispecific antibody)
chain 1: EVQLVESGGGLVQPGGSLRLSCAASGFTFSSYWMHWVRQVPGKGLVWVSRINSDGSRTIYADSVKGRFTISRDNAKNTLYLQMNSLRAEDTAVYYCARGEDHDILTGYPIRGQGTTVTVSSGGGGSGGGGSGGGGSEVQLVESGGGLVQPGGSLRLSCAASGFTFSSYWMHWVRQVPGKGLVWVSRINSDGSRTIYADSVKGRFTISRDNAKNTLYLQMNSLRAEDTAVYYCARGEDHDILTGYPIRGQGTTVTVSSASEPKSSDKTHTCPPCPAPEAAGGPSVFLFPPKPKDTLMISRTPEVTCVVVDVSHEDPEVKFNWYVDGVEVHNAKTKPREEQYNSTYRVVSVLTVLHQDWLNGKEYKCKVSNKALPAPIEKTISKAKGQPREPQVCTLPPSREEMTKNQVSLSCAVKGFYPSDIAVEWESNGQPENNYKTTPPVLDSDGSFFLVSKLTVDKSRWQQGNVFSCSVMHEALHNHYTQKSLSLSPGK
chain 2: not shown
light: QAVVTQEPSLTVSPGGTVTLTCRSSTGAVTTSNYANWVQQKPGQAPRGLIGGTNKRAPWTPARFSGSLLGDKAALTLLGAQPEDEAEYFCALWYSNLWVFGGGTKLTVLGQPKAAPSVTLFPPSSEELQANKATLVCLISDFYPGAVTVAWKADSSPVKAGVETTTPSKQSNNKYAASSYLSLTPEQWKSHRSYSCQVTHEGSTVEKTVAPTECS
notes: PR001848 / PR004533; LALA

EC50 [7]: 65 nM
EC50 (human CLDN18.2 [4]): 78 nM
Kd [8]: 32.4 nM
koff [8]: 0.00197 s⁻¹
kon [8]: 60700 M⁻¹ s⁻¹
Kd [2]: 31.7 nM
koff [2]: 0.00216 s⁻¹
kon [2]: 68100 M⁻¹ s⁻¹
IC50 (human CLDN18.2 [9]): 100 nM
Maximum inhibition rate (%) (human CLDN18.2 [9]): 48%
IC50 (human CLDN18.2 [10]): 132 nM
Maximum inhibition rate (%) (human CLDN18.2 [10]): 97.8%
Kd (Human FcRn): 217 nM
koff (Human FcRn): 0.0632 s⁻¹
kon (Human FcRn): 291000 M⁻¹ s⁻¹
TDCC, Titer EC50 (pM), SNU620 [11]: 18.5 pM
TDCC, Titer EC50 (pM), IM95 (human CLDN18.2 [6]): 460 pM
TDCC, Titer EC50 (pM), NUGC4_D8 (human CLDN18.2 [6]): 87 pM
binding result (Human CD16a(V)): no binding (tested: 6000-375 nM)
binding result (Human CD32a(H)): no binding (tested: 10000-625 nM)
binding result (Human CD64): no binding (tested: 800-50 nM)
binding result (Human CD16a(F)): no binding (tested: 10000-625 nM)
binding result (Human CD32b): no binding (tested: 10000-625 nM)
B3: PR006293 (bispecific antibody, human IgG1, lambda)
chain: B2 chain 1 with N52S, G55A, N188S, G191A, G281A
heavy: EVQLLESGGGLVQPGGSLRLSCAASGFTFSTYAMNWVRQAPGKGLEWVSRIRSKYNNYATYYADSVKDRFTISRDDSKSTLYLQMNSLRAEDTAVYYCVRHGNFGNSYVSWFAYWGQGTLVTVSSASTKGPSVFPLAPSSKSTSGGTAALGCLVKDYFPEPVTVSWNSGALTSGVHTFPAVLQSSGLYSLSSVVTVPSSSLGTQTYICNVNHKPSNTKVDKKVEPKSCDKTHTCPPCPAPEAAGAPSVFLFPPKPKDTLMISRTPEVTCVVVDVSHEDPEVKFNWYVDGVEVHNAKTKPREEQYNSTYRVVSVLTVLHQDWLNGKEYKCKVSNKALPAPIEKTISKAKGQPREPQVYTLPPCREEMTKNQVSLWCLVKGFYPSDIAVEWESNGQPENNYKTTPPVLDSDGSFFLYSKLTVDKSRWQQGNVFSCSVMHEALHNHYTQKSLSLSPGK
light: B2 light
notes: structure 1; CD3 Fab from PR001848, CLDN18.2 VH from PR007245; AAA

EC50 (human CLDN18.2 [4]): 13.1 nM
EC50 (human CLDN18.2 [12]): 17.5 nM
binding result [5]: binds
TDCC, Titer EC50 (pM), SNU620 [11]: 25.8 pM
TDCC, Titer EC50 (pM), NUGC4_D8 (human CLDN18.2 [6]): 6.4 pM
B4: PR005401 (bispecific antibody, human IgG1, lambda, L234A L235A)
chain: B2 chain 1 with N52D, D54R, N188D, D190R
heavy: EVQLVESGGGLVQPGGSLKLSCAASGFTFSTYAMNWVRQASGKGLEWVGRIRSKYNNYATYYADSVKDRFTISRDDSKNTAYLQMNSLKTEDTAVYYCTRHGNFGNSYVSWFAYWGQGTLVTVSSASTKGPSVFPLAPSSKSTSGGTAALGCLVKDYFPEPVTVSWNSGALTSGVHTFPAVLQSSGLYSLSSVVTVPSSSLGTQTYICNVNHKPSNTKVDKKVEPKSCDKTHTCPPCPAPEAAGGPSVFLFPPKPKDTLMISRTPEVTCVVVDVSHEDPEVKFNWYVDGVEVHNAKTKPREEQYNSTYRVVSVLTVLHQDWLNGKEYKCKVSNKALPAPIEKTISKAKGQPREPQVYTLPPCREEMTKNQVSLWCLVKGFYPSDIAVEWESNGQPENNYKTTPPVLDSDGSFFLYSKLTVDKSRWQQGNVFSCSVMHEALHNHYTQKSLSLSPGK
light: B2 light
notes: structure 1; CD3 Fab from PR003886, CLDN18.2 VH from PR007244; LALA
